In paper PMC6912275, “Identification of Novel Adenylyl Cyclase 5 (AC5) Signaling Networks in D1 and D2 Medium Spiny Neurons using Bimolecular Fluorescence Complementation Screening” (Cells, 2019):

How the values were obtained:
Endogenous PPP2CB = biological target: T1, Endogenous PPP2CB (human (endogenous in HEK 293), UniProt P62714 1-309); experiment: co-IP; endogenous PPP2CB or NAPA immunoprecipitated with its antibody and protein A agarose from HEK AC5/D2L cell lysate (0.5% C12E10, 150 mM NaCl, pH 7.5); AC activity measured in the immunoprecipitate with activated Gαs and FSK; cells under vehicle conditions (PPP2CB) or treated overnight with quinpirole (NAPA); conditions: partners not purified
T1 construct: protein phosphatase 2A catalytic subunit beta, endogenous in HEK 293 cells; also called protein phosphatase 2A (PP2A) catalytic subunit; source: endogenous, HEK AC5/D2L cell lysate
T1 sequence (P62714 whole entry): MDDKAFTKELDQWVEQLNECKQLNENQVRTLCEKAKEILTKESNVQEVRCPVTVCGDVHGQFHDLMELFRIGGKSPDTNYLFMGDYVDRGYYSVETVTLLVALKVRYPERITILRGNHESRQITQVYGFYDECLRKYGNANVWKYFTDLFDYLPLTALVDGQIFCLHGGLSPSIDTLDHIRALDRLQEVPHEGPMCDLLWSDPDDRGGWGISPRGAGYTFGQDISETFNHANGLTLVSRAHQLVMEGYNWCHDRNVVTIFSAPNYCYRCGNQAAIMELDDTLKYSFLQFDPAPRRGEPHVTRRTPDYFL

Endogenous NAPA = biological target: T2, Endogenous NAPA (human (endogenous in HEK 293), UniProt P54920 1-295); experiment: as above; conditions: partners not purified
T2 construct: NSF attachment protein alpha, endogenous in HEK 293 cells; also called NSF attachment protein alpha; source: endogenous, HEK AC5/D2L cell lysate
T2 sequence (looked up): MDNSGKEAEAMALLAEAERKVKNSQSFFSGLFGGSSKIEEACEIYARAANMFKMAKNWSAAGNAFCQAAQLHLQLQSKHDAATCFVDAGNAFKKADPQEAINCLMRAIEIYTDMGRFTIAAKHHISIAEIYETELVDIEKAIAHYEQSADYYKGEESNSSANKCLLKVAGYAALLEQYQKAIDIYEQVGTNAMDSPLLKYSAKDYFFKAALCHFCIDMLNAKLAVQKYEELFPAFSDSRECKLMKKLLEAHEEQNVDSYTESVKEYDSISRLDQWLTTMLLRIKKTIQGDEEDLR

B1: human AC type 5 (in HEK-AC5/D2L cells) (enzyme)
chain: not shown
notes: adenylyl cyclase type 5 (AC5), human; Found in the immunoprecipitates by its adenylyl cyclase activity, not by a blot; also called adenylyl cyclase type 5; source: HEK 293 cells stably expressing human D2L and human AC5 (HEK-AC5/D2L), in lysate
Endogenous PPP2CB
  fold AC activity in the immunoprecipitate against the control: 4 fold
Endogenous NAPA
  fold AC activity in the immunoprecipitate against the vehicle-treated group: 4.5 fold
